Assay results from publication PMC7961094, “Development of a colorimetric α-ketoglutarate detection assay for prolyl hydroxylase domain (PHD) proteins” (The Journal of Biological Chemistry, 2021).
Where “and” joins values, the source holds several entries; their conditions need not be identical. Identical values can stand only once.

Columns and labels:
[1] = target: MBP-HA-PHD3 (full-length human prolyl hydroxylase domain protein 3) (human) (UniProt Q9H6Z9)
[2] = substrate: CC[C@H](C)[C@H](NC(=O)[C@H](Cc1ccc(O)cc1)NC(=O)[C@@H]1CCCN1C(=O)[C@H](C)NC(=O)[C@H](CC(C)C)NC(=O)[C@H](CCSC)NC(=O)[C@H](CCC(=O)O)NC(=O)[C@H](CC(C)C)NC(=O)[C@H](CC(=O)O)NC(=O)[C@H](CC(C)C)NC(=O)[C@@H](N)CC(=O)O)C(=O)N1CCC[C@H]1C(=O)N[C@@H](CCSC)C(=O)N[C@@H](CC(=O)O)C(=O)N[C@@H](CC(=O)O)C(=O)N[C@@H](CC(=O)O)C(=O)N[C@@H](Cc1ccccc1)C(=O)N[C@@H](CCC(N)=O)C(=O)N[C@@H](CC(C)C)C(=O)O; assay: purified protein, by the assay type; conditions: pH 7.0, 37.0 °C
[3] = substrate: O=C(O)CCC(=O)C(=O)O; assay: purified protein, by the assay type; conditions: pH 7.0, 37.0 °C
[4] = target: MBP-HA-PHD3 (full-length human prolyl hydroxylase domain protein 3) (human) (UniProt Q9H6Z9); remark: listed apart in the source
[5] = other: PHD3, HIF-1α CODD substrate, This work (Table 2)

For ERIGFPLMIKASEGGGGK [synthetic ACC2 peptide encompassing the P450 residue], the Km of PHD3 for the ACC2 P450 peptide, initial rates of α-ketoglutarate consumption in the 2,4-DNPH α-KG assay (10 μM PHD3) [1] was 41.2 µM.

B1: PHD3 (Homo sapiens) (protein)
chain: MPLGHIMRLDLEKIALEYIVPCLHEVGFCYLDNFLGEVVGDCVLERVKQLHCTGALRDGQLAGPRAGVSKRHLRGDQITWIGGNEEGCEAISFLLSLIDRLVLYCGSRLGKYYVKERSKAMVACYPGNGTGYVRHVDNPNGDGRCITCIYYLNKNWDAKLHGGILRIFPEGKSFIADVEPIFDRLLFFWSDRRNPHEVQPSYATRYAMTVWYFDAEERAEAKKKFRNLTRKTESALTED
B1 was tested, and the Km [2, 5] was 24.03 ± 5.964 µM, the kcat [2, 5] was 0.06062 ± 0.00278 s⁻¹ and the kcat/Km [2, 5] was 2523 ± 466 M⁻¹ s⁻¹. For the same binder, the Km ([2]; other: increasing HIF-1α peptide (P564), saturating concentrations of all other reagents, PHD3) was 24.0 ± 6.0 µM, the Km [3, 5] was 43.29 ± 7.295 µM and the Km ([3]; other: increasing α-ketoglutarate, 100 μM peptide substrate, 10 μM PHD3) was 43.3 ± 7.3 µM.

B2: PHD2_181-426 (Homo sapiens) (protein)
chain: PNGQTKPLPALKLALEYIVPCMNKHGICVVDDFLGKETGQQIGDEVRALHDTGKFTDGQLVSQKSDSSKDIRGDKITWIEGKEPGCETIGLLMSSMDDLIRHCNGKLGSYKINGRTKAMVACYPGNGTGYVRHVDNPNGDGRCVTCIYYLNKDWDAKVSGGILRIFPEGKAQFADIEPKFDRLLFFWSDRRNPHEVQPAYATRYAITVWYFDADERARAKVKYLTGEKGVRVELNKPSDSVGKDVF
For B2, the Km ([2]; other: increasing HIF-1α peptide (P564), saturating concentrations of all other reagents, 3 μM PHD2) was 5.2 ± 0.9 µM and 5.192 ± 0.940 µM and the Km ([3]; other: increasing α-ketoglutarate, 100 μM peptide substrate, 3 μM PHD2) was 12.0 ± 3.0 µM and 11.970 ± 3.006 µM.

With DLDLEMLAPYIPMDDDFQL [synthetic HIF-1α peptide encompassing the P564 residue (HIF-1α CODD, 19-mer)] the Km (app; substrate) of PHD3 for the HIF-1α peptide, initial rates of α-ketoglutarate consumption in the 2,4-DNPH α-KG assay (10 μM PHD3, 37 °C, pH 7.0) [4] was 0.024 mM.
